Biological target: GFP-tagged human PPP1R15A (GFP-hR15A) (human) (UniProt O75807)
Test: co-IP; as a5, then three washes in GFP-Trap lysis buffer with additional NaCl; 350 mM salt

Chain of UniProt O75807 (O75807 whole entry): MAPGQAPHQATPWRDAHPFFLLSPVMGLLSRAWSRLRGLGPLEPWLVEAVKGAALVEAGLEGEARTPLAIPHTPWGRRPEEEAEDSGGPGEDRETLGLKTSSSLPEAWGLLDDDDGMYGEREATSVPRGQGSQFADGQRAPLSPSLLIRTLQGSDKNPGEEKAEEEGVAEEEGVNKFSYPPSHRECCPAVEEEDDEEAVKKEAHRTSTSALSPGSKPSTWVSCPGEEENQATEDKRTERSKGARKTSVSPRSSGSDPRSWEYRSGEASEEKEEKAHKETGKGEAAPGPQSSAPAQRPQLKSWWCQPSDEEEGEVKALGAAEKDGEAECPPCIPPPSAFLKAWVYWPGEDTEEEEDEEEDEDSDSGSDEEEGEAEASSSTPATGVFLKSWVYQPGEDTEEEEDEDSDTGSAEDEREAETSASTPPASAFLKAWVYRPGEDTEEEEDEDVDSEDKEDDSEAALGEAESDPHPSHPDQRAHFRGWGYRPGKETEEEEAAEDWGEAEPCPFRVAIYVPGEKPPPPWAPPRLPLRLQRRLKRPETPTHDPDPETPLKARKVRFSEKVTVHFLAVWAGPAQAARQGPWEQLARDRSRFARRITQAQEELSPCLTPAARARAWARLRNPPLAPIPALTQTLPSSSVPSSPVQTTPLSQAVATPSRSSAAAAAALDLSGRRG

percent of the actin bound at 150 mM salt that was lost at 350 mM: 75%
Substance: actin (endogenous, HEK293T cells) (from UniProt P60709 1-375) (natural protein)
